# ± gives the uncertainty stated by the source.
# Assay: protein stability index of a GFP-peptide fusion (yeast GPS) (PSI 1-4); higher = more stable; sorted into four equal gates, so the index is relative within each strain
# Details: pdr5∆
# Summary of the method: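 The protein stability index of a peptide was calculated by multiplying its read frequency in each gate by that gate's number and adding the products. The peptides were tiled 17-residue stretches of yeast proteins, fused downstream of GFP on a Cherry-expressing plasmid and carried in yeast as a pooled library. Mid-log cultures in leucine-free medium were sorted into four equal gates by GFP/Cherry ratio, and each gate's plasmids were PCR-amplified and Illumina-sequenced.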
row,Sequence,protein stability index
1,EGEKCHPQDFGNPGRIR [SEC65],2.76 ± 0.066

# Same assay, conditions: san1∆
row,Sequence,protein stability index
1,DRQIINEKMQLLKDIFA [SIR4],2.31 ± 0.058
2,DRRKARKAYFTAPSSQR [RPL26A],2.76 ± 0.057
3,DRTLPHFSKDDYSPESK [RPO21],2.85 ± 0.099
4,DSEDEDSMKDTTDMISV [YML031W/NDC1],3.2 ± 0.11
5,DSEERDPKLEKCLNYRN [ITC1],2.71 ± 0.061
6,DSENNEENSSSNGNNLP [RGR1],2.96 ± 0.055
7,DSIPYPQIVKLFDISRE [ECM29],1.23 ± 0.073
8,DSKLLPKNIEPPLTSQY [SWI3],2.92 ± 0.041
9,DSLRKLYVDSESTSSTE [MTW1],3.16 ± 0.1
10,DSMKYTISSLFVQLCEM [RPC82],2.15 ± 0.062
11,DSNKTLLHNHLKSIESL [SMC2],1.49 ± 0.22
12,DSNTTEILTSVDVLGTH [SIR4],2.93 ± 0.06
13,DSSSQCIVDFTNPKLKS [YMR129W/POM152],2.33 ± 0.072
14,DSSYQDIFAVNLEESSK [RET1],2.29 ± 0.26
15,DSVFEQNEMIDAIAVTK [RPL3],2.31 ± 0.1
16,DTCAVSFDAVSDSIELL [YJR042W/NUP85],2.51 ± 0.25
17,DTFDGSDLRVLSGSISE [FAS1],1.49 ± 0.14
18,DTIMENPEPNKKNIQKA [IRR1],3.18 ± 0.2
19,DTKIDQVNGNIRKVSND [SMC3],3 ± 0.12
20,DTKPFLNKDSTNEFVGS [NUT1],2.44 ± 0.062
21,DTSGLKISNSEFFNPEI [SIN4],3.1 ± 0.058
22,DTSNWELSDSWRAHDSS [YGL100W/SEH1],3.4 ± 0.036
23,DTTANNGKVQYFLRRQY [YJL039C/NUP192],2.83 ± 0.15
24,DTVDRLIIKYQKYWESM [GAL11],2.62 ± 0.053

row,Sequence,protein stability index
1,DTVEEKKEEKLNIGKNF [SIR4],3.34 ± 0.2
2,DTYKRFKYLLGVTDLFR [ISW2],1.21 ± 0.11
3,DTYPYLTGEWSTKFDYP [FAS1],2.85 ± 0.063
4,DVDQHGNDNNSDSNANA [SWI3],3.245 ± 0.028
5,DVFNLLPNLGTPDDDEI [RPN8],1.43 ± 0.12
6,DVKISNDFFDNGDNLYG [RPN4],2.67 ± 0.12
7,DVKLVLASNFDNFDYFN [MED1],3.2 ± 0.07
8,DVKSSLSKVFSDVLFEF [YJL039C/NUP192],2.58 ± 0.1
9,DVLKENNDADKGRSYAY [RIP1],3.25 ± 0.092
10,DVNDVLTKYIRSKNLIF [GRR1],2.19 ± 0.083
11,DVTHTLGMLDDNKMDSV [SMC4],3.21 ± 0.049
12,DVYSPEKGSWEQLSPQD [BRR2],2.47 ± 0.24
13,DWPTYVDQNPLTMHKII [SRB8],2.69 ± 0.074
14,DYCRILSDIETAVNGID [YGL172W/NUP49],2.75 ± 0.17
15,DYKGAKLNVVGWFHSHP [RRI1],2.38 ± 0.18
16,DYKTAFSYFFESFESYH [RPN6],2.59 ± 0.067
17,DYVTNPDTKISSAAILG [RPN1],2.21 ± 0.17
18,DYVVAPGVNREINSEMC [GRR1],3.32 ± 0.082
19,EAARICANKYMTTVSGR [RPL10],1.75 ± 0.2
20,EAFIASGITDPYEMYKY [FAS2],1.73 ± 0.068
21,EALIEFIYDTEKNGGLG [FAS2],2.67 ± 0.054
22,EARLPSQVVWIRRLRVL [RPL19A],1.33 ± 0.11
23,EATREVFGISKTSSGSY [ITC1],3.23 ± 0.068
24,EDAIHIALLTLKESVEG [PRE8],2.94 ± 0.069

row,Sequence,protein stability index
1,EDEDDGESEKSSDVDMD [RPC53],3.29 ± 0.19
2,EDLHEKNDSAEVRQETQ [NUT1],3.13 ± 0.083
3,EDLKNFIFQIIEITNSN [SRB8],2.23 ± 0.086
4,EDNKYAIAGNSTTNSDV [RGR1],2.99 ± 0.06
5,EDQKVVDKALIAEIKKT [RPL6A],3.19 ± 0.11
6,EDRNESVNIAFAISMGY [ECM29],2.88 ± 0.055
7,EDSMIMNQSSIDRGLFR [RPB2],2.62 ± 0.098
8,EEAYDNPHDTLNRIKKY [PRP8],2.27 ± 0.17
9,EEEDSILSLEQSSRVVS [YCS4],3.19 ± 0.062
10,EEEKSVDASPNDVTRRT [CSL4],3.27 ± 0.05
11,EEEQDTGESEESSSEDD [IRR1],3.35 ± 0.11
12,EEHHEEEPSRVDPEQEA [RPT4],3.14 ± 0.052
13,EEKVLSTRLKKACKTAD [SRP68],3.56 ± 0.14
14,EELVSLAVFLFDIYNRD [YJL039C/NUP192],1.41 ± 0.2
15,EESIRESLQKRELLKSQ [SIR3],3 ± 0.056
16,EESISKFPDMGSLWVEF [RPB5],2.77 ± 0.1
17,EFDSTDTSLCINGEPSI [RRI1],3.08 ± 0.054
18,EFESELKNVEETQEIKE [ESC2],3.25 ± 0.18
19,EFGADWYKVAKNVGNKS [SWI3],3.35 ± 0.048
20,EFGTYGKYVIAGHVSGV [RPN14],1.25 ± 0.3
21,EFLFESLKNDLPQFRSS [ECM29],3.28 ± 0.082
22,EFRSAAGQLALDLANSG [YDL116W/NUP84],2.82 ± 0.14
23,EGAEPGPPYTTDEHLIF [ISW2],2.42 ± 0.043
24,EGEKCHPQDFGNPGRIR [SEC65],2.81 ± 0.057

# Same assay, conditions: ubr1∆
row,Sequence,protein stability index
1,DRQIINEKMQLLKDIFA [SIR4],1.92 ± 0.047
2,DRRKARKAYFTAPSSQR [RPL26A],2.59 ± 0.068
3,DRTLPHFSKDDYSPESK [RPO21],3.42 ± 0.093
4,DSDMLTKSHNTVQSWLC [NUT1],2.87 ± 0.078
5,DSEDEDSMKDTTDMISV [YML031W/NDC1],2.98 ± 0.21
6,DSEERDPKLEKCLNYRN [ITC1],2.49 ± 0.038
7,DSENNEENSSSNGNNLP [RGR1],3.06 ± 0.039
8,DSIPYPQIVKLFDISRE [ECM29],2.08 ± 0.039
9,DSKLLPKNIEPPLTSQY [SWI3],2.92 ± 0.04
10,DSLRKLYVDSESTSSTE [MTW1],3 ± 0.068
11,DSMKYTISSLFVQLCEM [RPC82],2.17 ± 0.043
12,DSNKTLLHNHLKSIESL [SMC2],2.78 ± 0.11
13,DSNTTEILTSVDVLGTH [SIR4],3.04 ± 0.036
14,DSSSQCIVDFTNPKLKS [YMR129W/POM152],1.96 ± 0.044
15,DSVFEQNEMIDAIAVTK [RPL3],2.51 ± 0.042
16,DTCAVSFDAVSDSIELL [YJR042W/NUP85],2.65 ± 0.15
17,DTFDGSDLRVLSGSISE [FAS1],1.79 ± 0.059
18,DTIMENPEPNKKNIQKA [IRR1],2.99 ± 0.11
19,DTKIDQVNGNIRKVSND [SMC3],3.27 ± 0.13
20,DTKPFLNKDSTNEFVGS [NUT1],3.04 ± 0.039
21,DTSGLKISNSEFFNPEI [SIN4],3.29 ± 0.074
22,DTSNWELSDSWRAHDSS [YGL100W/SEH1],3.31 ± 0.037
23,DTTANNGKVQYFLRRQY [YJL039C/NUP192],2.98 ± 0.091
24,DTVDRLIIKYQKYWESM [GAL11],3.02 ± 0.062
25,DTVEEKKEEKLNIGKNF [SIR4],2.42 ± 0.13

row,Sequence,protein stability index
1,DTYKRFKYLLGVTDLFR [ISW2],1.34 ± 0.075
2,DTYPYLTGEWSTKFDYP [FAS1],2.94 ± 0.057
3,DVDQHGNDNNSDSNANA [SWI3],3.249 ± 0.028
4,DVFNLLPNLGTPDDDEI [RPN8],1.43 ± 0.056
5,DVKISNDFFDNGDNLYG [RPN4],1.69 ± 0.057
6,DVKLVLASNFDNFDYFN [MED1],3.15 ± 0.056
7,DVKSSLSKVFSDVLFEF [YJL039C/NUP192],2.89 ± 0.053
8,DVLKENNDADKGRSYAY [RIP1],3.03 ± 0.26
9,DVNDVLTKYIRSKNLIF [GRR1],2.68 ± 0.043
10,DVTHTLGMLDDNKMDSV [SMC4],3.27 ± 0.097
11,DVYSPEKGSWEQLSPQD [BRR2],3.34 ± 0.25
12,DWPTYVDQNPLTMHKII [SRB8],2.91 ± 0.07
13,DYCRILSDIETAVNGID [YGL172W/NUP49],2.71 ± 0.1
14,DYKGAKLNVVGWFHSHP [RRI1],2.59 ± 0.061
15,DYKTAFSYFFESFESYH [RPN6],2.55 ± 0.033
16,DYSRKQLGYGKFLILNE [NUT1],3.18 ± 0.22
17,DYVTNPDTKISSAAILG [RPN1],1.91 ± 0.1
18,DYVVAPGVNREINSEMC [GRR1],3.13 ± 0.064
19,EAARICANKYMTTVSGR [RPL10],1.93 ± 0.1
20,EAFIASGITDPYEMYKY [FAS2],2.14 ± 0.045
21,EALIEFIYDTEKNGGLG [FAS2],2.17 ± 0.055
22,EARLPSQVVWIRRLRVL [RPL19A],1.44 ± 0.075
23,EATREVFGISKTSSGSY [ITC1],3.29 ± 0.041
24,EDAIHIALLTLKESVEG [PRE8],2.92 ± 0.076
25,EDEDDGESEKSSDVDMD [RPC53],3.32 ± 0.094

row,Sequence,protein stability index
1,EDEEEFSIFNYFKMFPA [RPC34],2.46 ± 0.2
2,EDLHEKNDSAEVRQETQ [NUT1],3.53 ± 0.075
3,EDLKNFIFQIIEITNSN [SRB8],1.79 ± 0.05
4,EDNKYAIAGNSTTNSDV [RGR1],2.93 ± 0.08
5,EDQKVVDKALIAEIKKT [RPL6A],3.61 ± 0.072
6,EDRNESVNIAFAISMGY [ECM29],2.82 ± 0.07
7,EDSMIMNQSSIDRGLFR [RPB2],2.91 ± 0.065
8,EEAYDNPHDTLNRIKKY [PRP8],3.4 ± 0.085
9,EEEDSILSLEQSSRVVS [YCS4],3.06 ± 0.086
10,EEEKSVDASPNDVTRRT [CSL4],3.44 ± 0.065
11,EEEQDTGESEESSSEDD [IRR1],3.43 ± 0.06
12,EEHHEEEPSRVDPEQEA [RPT4],3.26 ± 0.064
13,EEKVLSTRLKKACKTAD [SRP68],3.21 ± 0.075
14,EELVSLAVFLFDIYNRD [YJL039C/NUP192],1.39 ± 0.071
15,EESIRESLQKRELLKSQ [SIR3],3.12 ± 0.059
16,EESISKFPDMGSLWVEF [RPB5],2.71 ± 0.1
17,EETPSKTNKISILKRHS [NUT1],3.1 ± 0.17
18,EFDSTDTSLCINGEPSI [RRI1],3.24 ± 0.046
19,EFESELKNVEETQEIKE [ESC2],3.29 ± 0.15
20,EFGADWYKVAKNVGNKS [SWI3],3.3 ± 0.051
21,EFLFESLKNDLPQFRSS [ECM29],3 ± 0.11
22,EFRSAAGQLALDLANSG [YDL116W/NUP84],3 ± 0.12
23,EGAEPGPPYTTDEHLIF [ISW2],2.68 ± 0.037
24,EGEKCHPQDFGNPGRIR [SEC65],3.08 ± 0.047
